# Measured values: paper PMC4575908
# B1: SaGUS (Streptococcus agalactiae 2603V/R) (protein)
# chain: MLYPLLTKTRNTYDLGGIWNFKLGEHNPNELLPSDEVMVIPTSFNDLMVSKEKRDYIGDFWYEKVIEVPKVSEDEEMVLRFGSVTHQAKIYVDGVLVGEHKGGFTPFEVLVPECKYNNEKIKVSICANNVLDYTTLPVGNYSEIIQEDGSIKKKVRENFDFFNYAGVHRPLKLMIRPKNHIFDITITSRLSDDLQSADLHFLVETNQKVDEVRISVFDEDNKLVGETKDSRLFLSDVHLWEVLNAYLYTARVEIFVDNQLQDVYEENFGLREIEVTNGQFLLNRKPIYFKGFGKHEDTFINGRGLNEAANLMDLNLLKDMGANSFRTSHYPYSEEMMRLADRMGVLVIDEVPAVGLFQNFNASLDLSPKDNGTWNLMQTKAAHEQAIQELVKRDKNHPSVVMWVVANEPASHEAGAHDYFEPLVKLYKDLDPQKRPVTLVNILMATPDRDQVMDLVDVVCLNRYYGWYVDHGDLTNAEVGIRKELLEWQDKFPDKPIIITEYGADTLPGLHSTWNIPYTEEFQCDFYEMSHRVFDGIPNLVGEQVWNFADFETNLMILRVQGNHKGLFSRNRQPKQVVKEFKKRWMTIPHYHNKKNSVK
# Substrate: O=C(O)[C@H]1O[C@@H](Oc2ccc([N+](=O)[O-])cc2)[C@H](O)[C@@H](O)[C@@H]1O
# Type: biochemical
# Settings: 37.0 °C
protein,measurement,value
B1,Km,0.36 ± 0.03 mM
same,kcat,80 ± 2 s⁻¹
same,kcat/Km,224000 M⁻¹ s⁻¹
